In PMC4550891:

Biological target: Glu286 (UniProt position 286, FFGHPEVYIIV)
Assay: kinetics

Substance	pKa (~22 °C, not stated (100 mM buffer), 100 mM buffer after 1:5 mixing: MES (pH 6, 6.5), HEPES (pH 7-8), BIS-TRIS propane (pH 7-9), CHES (pH 9, 9.5), CAPS (pH 10-11). Also 0.1 mM EDTA., Fully (four-electron) reduced CytcO reacting with 1 mM O2, P3 intermediate, detergent-solubilised, no membrane potential)	pKa (Reduced wild-type CytcO reacting with O2, P3->F3 transition, cited from earlier work)
Cytochrome c oxidase (aa3-type) Ser425Ala variant (subunit I) (Rhodobacter sphaeroides; S425A)	>10.5	
Cytochrome c oxidase (aa3-type), subunit I carries the titrating residue (Rhodobacter sphaeroides)		9.4
